The test deals with human CD3 epsilon (human, UniProt P07766 23-207). As to the kind of experiment: cell-based or functional assay.
Chain of human CD3 epsilon (P07766 23-207): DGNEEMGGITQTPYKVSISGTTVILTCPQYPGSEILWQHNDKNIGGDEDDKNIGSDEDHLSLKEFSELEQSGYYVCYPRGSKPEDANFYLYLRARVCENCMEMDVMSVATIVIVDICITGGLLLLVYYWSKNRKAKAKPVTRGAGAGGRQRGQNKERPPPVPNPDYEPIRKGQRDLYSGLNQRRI

B1: epcoritamab CIEX-HPLC pre-acidic 1 fraction (bispecific antibody, human IgG1, kappa, lambda)
heavy 1: not shown
light 1: not shown
heavy 2: EVQLVESGGGLVQPDRSLRLSCAASGFTFHDYAMHWVRQAPGKGLEWVSTISWNSGTIGYADSVKGRFTISRDNAKNSLYLQMNSLRAEDTALYYCAKDIQYGNYYYGMDVWGQGTTVTVSSASTKGPSVFPLAPSSKSTSGGTAALGCLVKDYFPEPVTVSWNSGALTSGVHTFPAVLQSSGLYSLSSVVTVPSSSLGTQTYICNVNHKPSNTKVDKRVEPKSCDKTHTCPPCPAPEFEGGPSVFLFPPKPKDTLMISRTPEVTCVVVAVSHEDPEVKFNWYVDGVEVHNAKTKPREEQYNSTYRVVSVLTVLHQDWLNGKEYKCKVSNKALPAPIEKTISKAKGQPREPQVYTLPPSREEMTKNQVSLTCLVKGFYPSDIAVEWESNGQPENNYKTTPPVLDSDGSFFLYSRLTVDKSRWQQGNVFSCSVMHEALHNHYTQKSLSLSPG
light 2: not shown
modifications: N103 deamidated (49.9 rel %); N106 deamidated (15.1 rel %); residual signal peptide SEA before N-terminal E1 (42.9 rel %); trace levels of a 3005a HC fragment around N103/N106
Consider B1, for which the “Biological Activity (rel %), T-cell activation assay” value (from here on “Biological Activity (rel %)”) was 6 rel %.

B2: epcoritamab CIEX-HPLC acidic 2a fraction (bispecific antibody, human IgG1, kappa, lambda)
heavy 1: not shown
light 1: not shown
heavy 2: B1 heavy 2
light 2: not shown
modifications: N103 deamidated (29.6 rel %); N106 deamidated (22.6 rel %); non-consensus glycosylation A1F at N106 (15.0 rel %); residual signal peptide SEA before N-terminal E1 (26.9 rel %)
B2: the “Biological Activity (rel %)” value came to 25 rel %.

B3: epcoritamab CIEX-HPLC acidic 1 fraction (bispecific antibody, human IgG1, kappa, lambda)
heavy 1: not shown
light 1: not shown
heavy 2: B1 heavy 2
light 2: not shown
modifications: N103 deamidated (85.3 rel %); residual signal peptide SEA before N-terminal E1 (13.0 rel %)
As for B3, the “Biological Activity (rel %)” value was 9 rel %.

B4: epcoritamab CIEX-HPLC acidic 3 fraction (bispecific antibody, human IgG1, kappa, lambda)
heavy 1: not shown
light 1: not shown
heavy 2: B1 heavy 2
light 2: not shown
modifications: N106 deamidated (76.0 rel %); trace levels of N103 deamidation
For B4, the “Biological Activity (rel %)” value was found to be 90 rel %.

B5: epcoritamab CIEX-HPLC acidic 2b fraction (bispecific antibody, human IgG1, kappa, lambda)
heavy 1: not shown
light 1: not shown
heavy 2: B1 heavy 2
light 2: not shown
modifications: N106 deamidated (61.4 rel %); N103 deamidated (5.8 rel %); non-consensus glycosylation G2F (3.4 rel %) and A1F at N106; residual signal peptide SEA before N-terminal E1 (12.1 rel %)
Take B5: the “Biological Activity (rel %)” value stood at 28 rel %.
